No end group written: not given here. FI = 5(6)-carboxyfluorescein
Columns and labels:
Assay in all cases: cell-based or functional assay
MBP-M1^C-EGFP-H6 = biological target: MBP-M1^C-EGFP-H6
MBP-M1^C-mRFP-H6 = biological target: MBP-M1^C-mRFP-H6
MBP-M1^C-Gluc-H6 = MBP-M1^C-Gluc-H6 (Gaussia princeps)
MBP-M1^C-Ubc9-H6 = MBP-M1^C-Ubc9-H6 (murine, UniProt P63280 1-158)
MBP-M1^C-SENP1-H6 = biological target: T1, MBP-M1^C-SENP1-H6 (human, UniProt Q9P0U3 419-644)
T1 sequence (Q9P0U3 whole entry, looked up): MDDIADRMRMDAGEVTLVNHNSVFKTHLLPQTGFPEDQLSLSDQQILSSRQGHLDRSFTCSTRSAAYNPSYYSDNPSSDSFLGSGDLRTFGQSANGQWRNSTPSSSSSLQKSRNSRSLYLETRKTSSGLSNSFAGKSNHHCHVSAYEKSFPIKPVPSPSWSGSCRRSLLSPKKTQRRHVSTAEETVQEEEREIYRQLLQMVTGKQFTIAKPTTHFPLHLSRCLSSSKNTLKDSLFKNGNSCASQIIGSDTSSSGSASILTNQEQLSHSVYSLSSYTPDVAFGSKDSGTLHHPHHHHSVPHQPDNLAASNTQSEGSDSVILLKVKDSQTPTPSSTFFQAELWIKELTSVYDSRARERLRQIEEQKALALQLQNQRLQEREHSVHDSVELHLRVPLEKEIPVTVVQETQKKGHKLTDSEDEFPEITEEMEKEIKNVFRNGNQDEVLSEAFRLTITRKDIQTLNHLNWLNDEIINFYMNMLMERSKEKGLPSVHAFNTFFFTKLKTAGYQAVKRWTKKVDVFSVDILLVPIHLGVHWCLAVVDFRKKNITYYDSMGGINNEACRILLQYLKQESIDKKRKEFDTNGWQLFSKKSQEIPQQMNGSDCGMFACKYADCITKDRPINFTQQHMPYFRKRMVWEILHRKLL

[1] = biological target: WT^C-Trx-H6 (AceL-TerL Int^C fused to hexahistidine-tagged thioredoxin) (UniProt P0AA25 2-109 = thioredoxin)
WT^C-Trx-H6 (AceL-TerL Int^C fused to hexahistidine-tagged thioredoxin), sequence (P0AA25 other isoform, or with tags, fused parts or gaps): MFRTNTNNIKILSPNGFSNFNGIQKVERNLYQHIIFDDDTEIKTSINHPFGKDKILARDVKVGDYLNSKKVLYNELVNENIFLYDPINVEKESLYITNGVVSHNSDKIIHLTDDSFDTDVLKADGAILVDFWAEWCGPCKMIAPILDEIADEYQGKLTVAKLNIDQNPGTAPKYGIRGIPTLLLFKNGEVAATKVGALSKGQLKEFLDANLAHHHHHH

MBP-M1^C-EGFP-H6, sequence (main, as listed by the source): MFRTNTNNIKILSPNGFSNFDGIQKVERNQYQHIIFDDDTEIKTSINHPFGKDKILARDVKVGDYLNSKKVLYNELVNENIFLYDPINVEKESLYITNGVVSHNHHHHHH
MBP-M1^C-mRFP-H6, sequence (main, as listed by the source): as above
MBP-M1^C-Gluc-H6 (Gaussia princeps), sequence (main, as listed by the source): as above
MBP-M1^C-Ubc9-H6, sequence (P63280 other isoform, or with tags, fused parts or gaps): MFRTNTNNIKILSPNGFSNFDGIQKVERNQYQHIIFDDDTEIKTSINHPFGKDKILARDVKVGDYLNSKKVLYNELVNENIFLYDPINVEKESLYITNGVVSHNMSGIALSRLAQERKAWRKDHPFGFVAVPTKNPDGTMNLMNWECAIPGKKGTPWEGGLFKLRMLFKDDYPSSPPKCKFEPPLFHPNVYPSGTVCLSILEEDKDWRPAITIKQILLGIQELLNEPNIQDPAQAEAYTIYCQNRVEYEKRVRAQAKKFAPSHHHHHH

## {FI}-KKEFECVYGDTMVETEDGKIKIEDLYKRLA [pepWT^N (FI-KKEFE-IntN), synthetic peptide with the Int^N of the AceL-TerL intein]
MBP-M1^C-EGFP-H6
  yield of the N-terminally labelled splice product after 3 h at 8° C.: ~80%
MBP-M1^C-mRFP-H6
  yield of the N-terminally labelled splice product after 3 h at 8° C.: ~80%
MBP-M1^C-Gluc-H6
  yield of the N-terminally labelled splice product after 3 h at 8° C.: ~80%
MBP-M1^C-Ubc9-H6
  yield of the N-terminally labelled splice product after 3 h at 8° C.: ~80%
MBP-M1^C-SENP1-H6
  yield of the N-terminally labelled splice product after 3 h at 8° C.: ~80%
[1]
  splicing rate at 37° C. against 8° C.: ~50 fold slower
  t½ of splicing at 8° C.: 7.2 min

Source: patent publication US20160319287A1 (WESTF LISCHE WILHELMS UNIVERSIT T M NSTER, published 2016)
